Experimental data published in patent US20210301026A1 (ULTRAHUMAN TWELVE, published 2021).
Numbering of substitutions follows the chain as printed. In names and notes the source's numbering stands.

T1: monomeric cynomolgus monkey CSF1R ectodomain protein (cynomolgus monkey, UniProt P07333 20-517 (human entry))
T1 construct: also called monomeric cyno CSF1R; Cyno CSF1R
T1 chain: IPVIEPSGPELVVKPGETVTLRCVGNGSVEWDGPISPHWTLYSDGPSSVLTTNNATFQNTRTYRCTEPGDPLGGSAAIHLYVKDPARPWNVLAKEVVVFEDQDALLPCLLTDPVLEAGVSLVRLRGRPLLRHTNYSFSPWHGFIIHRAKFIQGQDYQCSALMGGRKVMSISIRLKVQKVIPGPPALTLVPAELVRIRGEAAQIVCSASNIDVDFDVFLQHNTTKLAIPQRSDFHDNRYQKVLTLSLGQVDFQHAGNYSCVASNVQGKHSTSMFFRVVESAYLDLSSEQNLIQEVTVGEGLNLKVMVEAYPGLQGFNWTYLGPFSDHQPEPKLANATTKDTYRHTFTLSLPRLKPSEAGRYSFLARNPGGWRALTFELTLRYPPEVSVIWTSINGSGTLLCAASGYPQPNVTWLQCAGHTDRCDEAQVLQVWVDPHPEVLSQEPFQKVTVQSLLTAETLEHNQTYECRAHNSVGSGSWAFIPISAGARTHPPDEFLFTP

T2: cynomolgus monkey CSF1R human Fc tagged recombinant protein (cynomolgus monkey, UniProt P07333 20-517 (human entry), limits assumed)
T2 construct: also called cyno CSF1R-Fc
T2 chain: T1 chain

B1: 29D10 (antibody, human IgG4, V domains shown)
VH: QVQLVQSGAEVKKPGSSVKVSCKASGYTFTSYYMIWVRQAPGQGLEWMGDINPYNGGANFAQKFQGRVTITADESTSTAYMELSSLRSEDTAVYYCAREGPYFSNLYVMDYWGQGTLVTVSS
VL: EIVLTQSPATLSLSPGERATLSCRASQSVSYEGENYLNWYQQKPGQAPRLLIYAASNRATGIPARFSGSGSGTDFTLTISSLEPEDFAVYYCQLSNEDLLTFGGGTKVEIK
notes: Library-derived clone, tested as human IgG4(S228P)/Ckappa IgG; framework residue limits counted on the grafts
B2: murine anti-CSF1R antibody 0301 (mu0301), v-domains in human IgG4(S228P) format (antibody, V domains shown)
VH: EVQLQQSGPELVRPGASVKMSCKASGYTFTDNYMIWVKQSHGKSLEWIGDINPYNGGTTFNQKFKGKATLTVEKSSSTAYMQLNSLTSEDSAVYYCARESPYFSNLYVMDYWGQGTSVTVSS
VL: NIVLTQSPASLAVSLGQRATISCKASQSVDYDGDNYMNWYQQKPGQPPKLLIYAASNLESGIPARFSGSGSGTDFTLNIHPVEEEDAATYYCHLSNEDLSTFGGGTKLEIK
B3: MH5 (antibody, human IgG4, V domains shown)
VH: B1 VH with T30S, F60Y
VL: B1 VL with L82P
notes: Designer (maximally humanized) clone; tested as human IgG4(S228P)/Ckappa IgG; also called mAb-2
B4: MH33 (antibody, human IgG4, V domains shown)
VH: B1 VH with T30S, Y32A, F60Y, Q114R
VL: B1 VL with L82P
notes: Deimmunized MH5 derivative, human IgG4(S228P)/Ckappa IgG
B5: MH13 (antibody, human IgG4, V domains shown)
VH: B1 VH with T30S, Y32N, F60Y
VL: B1 VL with L82P
notes: as for B4
B6: 29E11 (antibody, human IgG4, V domains shown)
VH: B1 VH with G57T, N59T, F60Y
VL: B1 VL with E32D, N38A
notes: as for B1
B7: 30C11 (antibody, human IgG4, V domains shown)
VH: B1 VH with Y32N, G57T, N59T, F60Y, G100D
VL: B1 VL with E34D, R58L, A59E, E97Q
notes: as for B1
B8: MH31 (antibody, human IgG4, V domains shown)
VH: B1 VH with T30S, Y32A, F60Y, Q114R
VL: B1 VL with L50A, L51A, L82P
notes: as for B4
B9: MH22 (antibody, human IgG4, V domains shown)
VH: B1 VH with T30S, Y32H, F60Y
VL: B1 VL with L50S, L51A, L82P
notes: as for B4
B10: MH23 (antibody, human IgG4, V domains shown)
VH: B1 VH with T30S, Y32H, F60Y
VL: B1 VL with L50A, L51A, L82P
notes: as for B4
B11: MH14 (antibody, human IgG4, V domains shown)
VH: B1 VH with T30S, Y32A, F60Y
VL: B1 VL with L50S, L51A, L82P
notes: as for B4
B12: MH38 (antibody, human IgG4, V domains shown)
VH: B1 VH with T30S, Y32H, F60Y, Q114R
VL: B1 VL with L50S, L51A, L82P
notes: as for B4
B13: MH9 (antibody, V domains shown)
VH: B1 VH with T30S, M34I, G57T, F60Y
VL: B1 VL with N38A, E97Q
notes: Designer clone, human IgG4(S228P)/Ckappa IgG

Molecular target: T1, monomeric cynomolgus monkey CSF1R …
Assay: SPR Biacore; KD on monomeric cyno CSF1R against KD of the same clone on monomeric human CSF1R as reference
Protocol: (§1) Affinity (KD) of purified IgGs was determined via SPR with antigen in-solution on a Biacore 3000 (GE). A mouse anti-human antibody (CH1 specific) was immobilized on a CM5 Sensor Chip to a level of 2000 RU in acetate buffer at pH 4.5 using amine coupling following the Wizard instructions for two channels. One channel was used for background signal correction. The standard running buffer HBS-EP pH 7.4 was used. Regeneration was performed with a single injection of 10 μl of 10 mM Glycine at pH 1.5 at 20 μl/minute. IgG samples were injected for 2 minutes at 50 nM at 30 μl/min followed by and off-rate of 60 seconds. The monomeric ectodomain protein (human CSF1R or cynomolgus monkey CSF1R) was injected in two fold serial dilutions from 100 nM down to 3.1 nM, for 2 minutes at 30 μl/min followed by an off-rate of 300 seconds. The obtained sensorgrams were analysed using the Biacore 3000 evaluation (BIAevaluation) software. The KD was calculated by simultaneous fitting of the association and dissociation phases to a 1:1 Langmuir binding model.

| human/cyno affinity differential [fold] | Binder |
| --- | --- |
| < 3 | B1 |

Molecular target: T3, monomeric human CSF1R ectodomain protein (human, UniProt P07333 20-517)
T3 construct: also called biotinylated monomeric human CSF1R
Assay: AlphaScreen competition with mu0301 IgG4(S228P) for biotinylated monomeric human CSF1R
Protocol: The AlphaScreen assay (Perkin Elmer) was performed in a 25 μl final volume in 384-well white microtiter plates (Greiner). The reaction buffer contained 1×PBS pH 7.3 (Oxoid, Cat. nr. BR0014G) and 0.05% (v/v) Tween® 20 (Sigma, Cat. nr. P9416). Purified IgG samples were titrated in three fold serial dilutions starting at 500 nM final concentration and incubated with biotinylated human CSF1R for 20 minutes at room temperature. […] The emission of light was measured in the EnVision multilabel plate reader (Perkin Elmer) and analysed using the EnVision manager software. Values were reported as Counts Per Second (CPS) and corrected for crosstalk. The EC50 values were calculated using the […] in GraphPad Prism software (GraphPad Software, La Jolla, Calif.).

| IC50 [nM] | Binder |
| --- | --- |
| 1.29 | B2 |
| 2.18 | B3 |
| 1.93 | B1 |

Molecular target: T3, monomeric human CSF1R ectodomain protein
Assay: SPR Biacore, IgG captured, monomeric CSF1R analyte
Protocol: as §1

| Kd [nM] | koff [s⁻¹] | kon [M⁻¹ s⁻¹] | fold of the affinity of hu0301 [fold] | Binder |
| --- | --- | --- | --- | --- |
| 0.024 | 6.9e-05 | 2.9e+06 | – | B2 |
| 0.22 | 0.00036 | 1.7e+06 | – | B3 |
| 1.09 | 0.00144 | 1.32e+06 | – | B4 |
| 0.397 | 0.000673 | 1.69e+06 | ≤ 2 | B5 |

Molecular target: T1, monomeric cynomolgus monkey CSF1R …
Assay: SPR Biacore, IgG captured, monomeric CSF1R analyte
Protocol: as §1

| Kd [nM] | koff [s⁻¹] | kon [M⁻¹ s⁻¹] | fold of the affinity of hu0301 [fold] | Binder |
| --- | --- | --- | --- | --- |
| 0.1 | 7.4e-05 | 740000 | – | B2 |
| 0.62 | 0.00031 | 500000 | – | B3 |
| 1.74 | 0.00115 | 660000 | – | B4 |
| 0.723 | 0.000598 | 827000 | ≤ 2 | B5 |

Molecular target: T2, cynomolgus monkey CSF1R human Fc tagged …
Assay: direct titration ELISA on coated cyno CSF1R-Fc, IgG4(S228P) format, OD 450 nm
Protocol: (§2) Binding and cross-reactivity of the lead panel to the recombinant proteins was initially assessed by binding ELISA. The human CSF1R human Fc tagged recombinant protein and the cynomolgus monkey CSF1R human Fc tagged recombinant protein were coated to the surface of MaxiSorp™ flat-bottom 96 well plate at 1 μg/ml. The purified IgG samples were titrated in two fold serial dilutions starting from 500 nM to 0.008 nM and allowed to bind to the coated antigens. The Fabs were detected using mouse anti-c-myc antibody followed by donkey anti-mouse IgG conjugated to horseradish peroxidase. The IgGs were detected using the mouse anti-human IgG conjugated to horseradish peroxidase. Binding signals were visualized with 3,3′,5,5′-Tetramethylbenzidine Substrate Solution (TMB) and the absorbance measured at 450 nm.

| binding result | Binder |
| --- | --- |
| binds | B6 |
| binds | B7 |

Molecular target: T3, monomeric human CSF1R ectodomain protein
Assay: SPR Biacore, IgG captured, monomeric CSF1R analyte
Remark: another data set of the same source
Protocol: as §1
(§3) Biacore analyses of binding affinity were performed for all IgGs to solution-phase, monomeric human and cyno CSF1R proteins (Table 6). […] Affinity differentials of less than 3-fold between human and cyno target orthologs are highly beneficial in pre-clinical drug development analyses as they allow more accurate design and interpretation of e.g. monkey safety, PK and PD modelling experiments.

| Kd [nM] | koff [s⁻¹] | kon [M⁻¹ s⁻¹] | Binder |
| --- | --- | --- | --- |
| 0.024 | 6.9e-05 | 2.9e+06 | B2 |
| 0.22 | 0.00036 | 1.7e+06 | B3 |
| 0.2 | 0.00037 | 1.9e+06 | B1 |

Molecular target: T1, monomeric cynomolgus monkey CSF1R …
Assay: SPR Biacore, IgG captured, monomeric CSF1R analyte
Remark: another data set of the same source
Protocol: as §1, §3

| Kd [nM] | koff [s⁻¹] | kon [M⁻¹ s⁻¹] | Binder |
| --- | --- | --- | --- |
| 0.1 | 7.4e-05 | 740000 | B2 |
| 0.62 | 0.00031 | 500000 | B3 |
| 0.42 | 0.00022 | 520000 | B1 |

Molecular target: T4, human insulin (human, UniProt P01308 25-54; P01308 90-110, limits assumed)
T4 construct: Coated antigen of the polyreactivity ('PK-risk indicator') ELISA
T4 sequence (P01308 25-54 limits assumed, chain 1 of 2): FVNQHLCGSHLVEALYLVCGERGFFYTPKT
T4 sequence (P01308 90-110 limits assumed, chain 2 of 2): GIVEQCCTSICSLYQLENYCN
Assay: ELISA on human insulin (development risk, polyreactivity), binding score

| binding result | Binder |
| --- | --- |
| no binding | B2 |
| no binding | B4 |
| no binding | B5 |
| no binding | B8 |
| no binding | B9 |
| no binding | B10 |
| no binding | B11 |

Molecular target: T5, human CSF1R human Fc tagged recombinant protein (human, UniProt P07333 20-517)
T5 construct: also called human CSF1R-Fc
Assay: direct titration ELISA on coated human CSF1R-Fc, IgG4(S228P) format, OD 450 nm
Protocol: as §2

| EC50 (read off the curve) [nM] | binding result | Binder |
| --- | --- | --- |
| ~0.1 | – | B2 |
| – | binds | B12 |
| – | binds | B8 |
| – | binds | B9 |
| – | binds | B10 |
| – | binds | B11 |

Molecular target: T6, human CSF1R, membrane-presented on cells (human, UniProt P07333 20-972)
T6 construct: HEK-293 cells transiently transfected with human CSF1R (flow cytometry); the native receptor on primary human monocytes in the proliferation assay; also called human CSF1R+ HEK-293 cells; CSF1R on primary human CD14+ monocytes
Assay: flow cytometry on HEK-293 cells expressing human CSF1R, MFI

| EC50 (read off the curve) [nM] | Binder |
| --- | --- |
| ~1 | B2 |
| ~0.7 | B4 |
| ~1 | B5 |

Molecular target: T5, human CSF1R human Fc tagged recombinant …
Assay: direct titration ELISA on coated human CSF1R-Fc, IgG4(S228P) format, OD 450 nm
Remark: another data set of the same source
Protocol: as §2

| EC50 (read off the curve) [nM] | binding result | Binder |
| --- | --- | --- |
| ~0.1 | – | B2 |
| ~10 | – | B13 |
| – | binds | B6 |
| – | binds | B7 |

Molecular target: T2, cynomolgus monkey CSF1R human Fc tagged …
Assay: direct titration ELISA on coated cyno CSF1R-Fc, IgG4(S228P) format, OD 450 nm
Remark: another data set of the same source
Protocol: as §2

| EC50 (read off the curve) [nM] | binding result | Binder |
| --- | --- | --- |
| ~0.2 | – | B2 |
| – | binds | B12 |
| – | binds | B8 |
| – | binds | B9 |
| – | binds | B10 |
| – | binds | B11 |
